According to publication doi:10.1101/2023.12.05.570295:

Target: mKate2-K67R/R197H, named Diogenes

## mKate2-K67R/R197H, named Diogenes
  OSER assay in live HeLa cells (CytERM fusion): whorl-free cells: 87%
